Measured values from patent US20250326813A1.

Biological target: T1, human IL2Rβ Fc fusion protein (human) (UniProt P14784)
T1 sequence (looked up): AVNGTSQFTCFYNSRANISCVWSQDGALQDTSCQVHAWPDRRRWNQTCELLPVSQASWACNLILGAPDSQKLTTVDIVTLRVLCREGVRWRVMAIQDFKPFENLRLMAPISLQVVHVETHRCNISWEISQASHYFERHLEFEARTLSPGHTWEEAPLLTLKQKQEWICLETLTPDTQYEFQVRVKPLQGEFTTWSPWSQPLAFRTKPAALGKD
Assay: ELISA, single concentration, anti-flag detection, E. coli-produced clone

OD450 nm: 0.871 OD450
B1: EP569 (clone 2021EP22-E03), E. coli-produced (ligand)
chain: APASSSTKKTQLQLEHLLLDLQMILNGINNYKNPKLTRMLTFKFYMPKKATELKHLQCLEEELKPLEEVLNLAQSKNFHLRRKESINHMIVVFPVLKGSETTFMCEYADETATIVEFLNRWITFSQSIISTLT
